Results reported in publication PMC9482650, “Quantitative fragmentomics allow affinity mapping of interactomes” (Nature Communications, 2022).

T1: APBA1_1, Q02410
T1 sequence (Q02410 651-752, limits assumed, looked up): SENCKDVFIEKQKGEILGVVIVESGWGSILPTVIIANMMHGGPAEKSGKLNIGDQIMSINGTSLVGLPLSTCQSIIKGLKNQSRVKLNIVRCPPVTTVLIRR

T2: APBA2_1, Q99767
T2 sequence (Q99767 563-664, limits assumed, looked up): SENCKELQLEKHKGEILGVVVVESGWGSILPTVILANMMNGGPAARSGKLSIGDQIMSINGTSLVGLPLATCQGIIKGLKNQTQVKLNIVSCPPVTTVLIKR

T3: APBA2_2, Q99767
T3 sequence (Q99767 654-744, limits assumed, looked up): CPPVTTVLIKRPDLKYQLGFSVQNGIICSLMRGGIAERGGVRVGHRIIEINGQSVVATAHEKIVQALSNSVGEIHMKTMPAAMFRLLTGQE

T4: ARHGEF11, O15085
T4 sequence (O15085 42-136, limits assumed, looked up): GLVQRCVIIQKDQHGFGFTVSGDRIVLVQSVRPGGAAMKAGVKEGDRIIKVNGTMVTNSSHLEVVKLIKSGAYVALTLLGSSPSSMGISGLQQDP

T5: DFNB31_1, Q9P202
T5 sequence (Q9P202 135-233, limits assumed, looked up): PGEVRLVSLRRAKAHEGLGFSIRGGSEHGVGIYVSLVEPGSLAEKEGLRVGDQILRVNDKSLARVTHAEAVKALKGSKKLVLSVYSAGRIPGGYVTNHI

T6: DLG3_3, Q92796
T6 sequence (Q92796 374-475, limits assumed, looked up): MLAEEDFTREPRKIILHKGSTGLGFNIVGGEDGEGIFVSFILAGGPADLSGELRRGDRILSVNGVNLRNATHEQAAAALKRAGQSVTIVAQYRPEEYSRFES

T7: GRIP1_2, Q9Y3R0
T7 sequence (Q9Y3R0 145-248, limits assumed, looked up): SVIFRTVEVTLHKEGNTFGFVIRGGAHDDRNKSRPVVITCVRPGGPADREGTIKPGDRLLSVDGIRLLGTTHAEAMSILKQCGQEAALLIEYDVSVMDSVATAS

T8: GRIP1_5, Q9Y3R0
T8 sequence (Q9Y3R0 568-668, limits assumed, looked up): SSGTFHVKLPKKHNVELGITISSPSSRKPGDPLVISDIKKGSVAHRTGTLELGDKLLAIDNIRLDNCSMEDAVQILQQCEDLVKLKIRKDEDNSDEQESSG

T9: MPDZ_5, O75970
T9 sequence (O75970 695-796, limits assumed, looked up): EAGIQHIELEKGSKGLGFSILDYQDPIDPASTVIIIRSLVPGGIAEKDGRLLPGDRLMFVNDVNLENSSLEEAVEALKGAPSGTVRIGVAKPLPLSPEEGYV

T10: MPP2, Q14168
T10 sequence (Q14168 180-250, limits assumed, looked up): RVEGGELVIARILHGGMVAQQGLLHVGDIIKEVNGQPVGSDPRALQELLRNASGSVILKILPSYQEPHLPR

T11: NHERF3_3, Q5T2W1
T11 sequence (Q5T2W1 238-333, limits assumed, looked up): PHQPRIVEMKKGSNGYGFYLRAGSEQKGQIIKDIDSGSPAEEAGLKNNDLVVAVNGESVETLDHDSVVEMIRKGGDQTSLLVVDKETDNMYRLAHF

T12: SNTB1, Q13884
T12 sequence (Q13884 107-205, limits assumed, looked up): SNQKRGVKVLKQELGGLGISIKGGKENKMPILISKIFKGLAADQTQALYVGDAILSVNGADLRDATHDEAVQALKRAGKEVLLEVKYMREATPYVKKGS


Experiments:
Test in all cases: holdup assay
Parameters in all cases: key: below the threshold = too weak to quantify, mostly under pKd 3.1 to 4
Conditions in all cases: plain residues with an end cap or a label only (N-terminal biotin on a linker: ado-ado)
[1] = target: T1, APBA1_1, Q02410
[2] = target: T2, APBA2_1, Q99767
[3] = target: T3, APBA2_2, Q99767
[4] = target: T4, ARHGEF11, O15085
[5] = target: CASK, O14936
Chain of CASK, O14936 (O14936 487-570): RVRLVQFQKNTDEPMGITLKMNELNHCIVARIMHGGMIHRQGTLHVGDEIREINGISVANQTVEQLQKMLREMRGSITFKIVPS

[6] = target: T5, DFNB31_1, Q9P202
[7] = target: DLG1_2, Q12959
Chain of DLG1_2, Q12959 (Q12959 314-412): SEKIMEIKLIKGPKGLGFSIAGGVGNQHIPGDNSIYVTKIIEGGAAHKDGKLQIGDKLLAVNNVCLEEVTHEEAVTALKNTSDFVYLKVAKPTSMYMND

[8] = target: DLG1_3, Q12959
Chain of DLG1_3, Q12959 (Q12959 457-571): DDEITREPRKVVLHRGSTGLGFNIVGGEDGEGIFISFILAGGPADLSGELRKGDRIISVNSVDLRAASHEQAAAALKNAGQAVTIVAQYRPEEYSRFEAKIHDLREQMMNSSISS

[9] = target: T6, DLG3_3, Q92796
[10] = target: DLG4_1, P78352
Chain of DLG4_1, P78352 (P78352 62-152): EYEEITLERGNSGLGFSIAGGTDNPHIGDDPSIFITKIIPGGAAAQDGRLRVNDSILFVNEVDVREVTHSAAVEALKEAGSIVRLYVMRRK

[11] = target: FRMPD4, Q14CM0
Chain of FRMPD4, Q14CM0 (Q14CM0 67-160): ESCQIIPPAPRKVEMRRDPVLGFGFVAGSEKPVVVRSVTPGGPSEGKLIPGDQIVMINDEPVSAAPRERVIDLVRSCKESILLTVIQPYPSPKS

[12] = target: GOPC, Q9HD26
[13] = target: GORASP2, Q9H8Y8
[14] = target: GRID2IP_2, A4D2P6
Chain of GRID2IP_2, A4D2P6 (A4D2P6 272-370): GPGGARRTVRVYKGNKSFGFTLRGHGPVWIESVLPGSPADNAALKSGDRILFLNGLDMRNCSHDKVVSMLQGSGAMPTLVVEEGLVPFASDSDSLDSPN

[15] = target: T7, GRIP1_2, Q9Y3R0
[16] = target: T8, GRIP1_5, Q9Y3R0
[17] = target: IL16_1, Q14005
Chain of IL16_1, Q14005 (Q14005 210-306): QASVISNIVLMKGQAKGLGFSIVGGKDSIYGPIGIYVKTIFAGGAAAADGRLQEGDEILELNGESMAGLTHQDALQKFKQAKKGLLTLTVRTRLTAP

[18] = target: IL16_3, Q14005
Chain of IL16_3, Q14005 (Q14005 1107-1207): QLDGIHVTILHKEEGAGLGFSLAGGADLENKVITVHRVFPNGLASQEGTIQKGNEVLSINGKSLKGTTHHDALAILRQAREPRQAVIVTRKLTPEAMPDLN

[19] = target: LNX1_1, Q8TBB1
Chain of LNX1_1, Q8TBB1 (Q8TBB1 261-371): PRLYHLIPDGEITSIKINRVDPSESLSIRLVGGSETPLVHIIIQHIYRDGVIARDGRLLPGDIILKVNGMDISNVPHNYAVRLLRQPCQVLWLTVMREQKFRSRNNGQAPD

[20] = target: LNX1_2, Q8TBB1
Chain of LNX1_2, Q8TBB1 (Q8TBB1 371-470): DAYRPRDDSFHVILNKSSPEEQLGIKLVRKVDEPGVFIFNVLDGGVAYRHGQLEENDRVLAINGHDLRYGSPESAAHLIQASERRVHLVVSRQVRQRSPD

[21] = target: T9, MPDZ_5, O75970
[22] = target: T10, MPP2, Q14168
[23] = target: T11, NHERF3_3, Q5T2W1
[24] = target: NHERF4_4, Q86UT5
Chain of NHERF4_4, Q86UT5 (Q86UT5 464-550): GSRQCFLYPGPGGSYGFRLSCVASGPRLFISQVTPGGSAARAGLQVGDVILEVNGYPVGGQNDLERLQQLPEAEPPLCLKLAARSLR

[25] = target: T12, SNTB1, Q13884
[26] = target: TJP1_3, Q07157
Chain of TJP1_3, Q07157 (Q07157 416-512): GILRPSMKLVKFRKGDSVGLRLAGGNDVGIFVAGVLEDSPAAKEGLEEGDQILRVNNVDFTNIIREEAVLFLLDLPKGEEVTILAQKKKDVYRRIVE

Binder | pKd [1] | pKd [2] | pKd [3] | pKd [4] | pKd [5] | pKd [6] | pKd [7] | pKd [8] | pKd [9] | pKd [10] | pKd [11] | pKd [12] | pKd [13] | pKd [14] | pKd [15] | pKd [16] | pKd [17] | pKd [18] | pKd [19] | pKd [20] | also measured
SSGSTSSSRI [ADGRG1, Q9Y653] | below the threshold | below the threshold | below the threshold | 3.93 | below the threshold | 4.27 | below the threshold | 3.87 | 3.64 | below the threshold | below the threshold | 4 | 3.57 | 4.02 | below the threshold | below the threshold | below the threshold | below the threshold | 3.66 | below the threshold | pKd [21]: below the threshold; pKd [22]: below the threshold; pKd [23]: below the threshold; pKd [24]: below the threshold; pKd [25]: below the threshold; pKd [26]: below the threshold
ASGLDKRDYV [CLDN9, O95484] | below the threshold | below the threshold | below the threshold | below the threshold | below the threshold | below the threshold | below the threshold | below the threshold | below the threshold | below the threshold | below the threshold | below the threshold | below the threshold | below the threshold | below the threshold | below the threshold | below the threshold | below the threshold | below the threshold | below the threshold | pKd [21]: below the threshold; pKd [22]: below the threshold; pKd [23]: below the threshold; pKd [24]: below the threshold; pKd [25]: below the threshold; pKd [26]: below the threshold

Second part, led by results:

pKd [1] | pKd [2] | pKd [3] | pKd [4] | pKd [5] | pKd [6] | pKd [7] | pKd [8] | pKd [9] | pKd [10] | pKd [11] | pKd [12] | pKd [13] | pKd [14] | pKd [15] | pKd [16] | pKd [17] | pKd [18] | pKd [19] | pKd [20] | Binder | also measured
below the threshold | below the threshold | below the threshold | 3.83 | below the threshold | 4 | 4.3 | 3.65 | 3.62 | 3.99 | below the threshold | 3.67 | below the threshold | 3.9 | below the threshold | below the threshold | 4.49 | below the threshold | below the threshold | below the threshold | PDSNPEESSV [SEMA4C, Q9C0C4] | pKd [21]: below the threshold; pKd [22]: below the threshold; pKd [23]: below the threshold; pKd [24]: below the threshold; pKd [25]: 4.46; pKd [26]: below the threshold
below the threshold | below the threshold | below the threshold | 4.01 | below the threshold | 4.02 | 3.88 | below the threshold | below the threshold | 3.52 | 4.84 | 3.76 | below the threshold | 3.85 | below the threshold | below the threshold | below the threshold | below the threshold | below the threshold | below the threshold | NPETRDETQL [KCNT1, Q5JUK3] | pKd [21]: below the threshold; pKd [22]: below the threshold; pKd [23]: below the threshold; pKd [24]: 3.99; pKd [25]: 4.35; pKd [26]: below the threshold
below the threshold | below the threshold | below the threshold | 3.75 | below the threshold | 3.94 | 4.01 | 3.76 | 3.9 | 3.79 | below the threshold | 3.82 | below the threshold | 4.07 | below the threshold | below the threshold | 3.97 | below the threshold | 3.52 | below the threshold | EWTDERQSKV [GAB3, Q8WWW8] | pKd [21]: below the threshold; pKd [22]: below the threshold; pKd [23]: below the threshold; pKd [24]: below the threshold; pKd [25]: 4.62; pKd [26]: below the threshold
